In the RNAGym collection of RNA variant scans (doi:10.7554/elife.80360):

B1: Twister Ribozyme (parent)
chain: AACACUGCCAAUGCCGGUCCCAAGCCCGGAUAAAAGUGGAGGGGGCGG

Variants of: B1
Test: self-cleavage, relative activity (ratio to wild type); higher = more cleavage; co-transcriptional
AACACUGCCAAUACCGGUCCCAAGCCCGGAUAACAGUGGAGGGGGCGG [G13A A34C] gave a self-cleavage of 0.173.
In the case of AACACUGCCAAUACCGGUCCCAAGCCCGGAUAAGAGUGGAGGGGGCGG [G13A A34G], the self-cleavage is reported as 0.635.
For AACACUGCCAAUACCGGUCCCAAGCCCGGAUAAAAGUGGUGGGGGCGG [G13A A40U], the self-cleavage was 0.209.
AACACUGCCAAUACCGGUCCCAAGCCCGGAUAAAAGUGGCGGGGGCGG [G13A A40C] showed a self-cleavage of 0.224.
Variant AACACUGCCAAUCCCGGUCCCAAGCCCGGAUAAAAGUGGCGGGGGCGG [G13C A40C] has a self-cleavage of 0.0965.
AACACUGCCAAGGCCGGUCCCAAGCCCGGAUAAAAGUGGAGGGUGCGG [U12G G44U] showed a self-cleavage of 0.799.
In the case of AACACUGCCAAGGCCGGUCCCAAGCCCGGAUAAAAGUGGAGGGCGCGG [U12G G44C], the self-cleavage is reported as 0.681.
AACACUGCCAAGGCCGGUCCCAAGCCCGGAUAAAAGUGGAGGGAGCGG [U12G G44A] showed a self-cleavage of 0.784.
With AACACUGCCAAUACCGGUCCCAAGCCCGGAUAAAAGUGGAGGGGCCGG [G13A G45C] the self-cleavage was 0.229.
AACACUGCCAAUAGCGGUCCCAAGCCCGGAUAAAAGUGGAGGGGGCGG [G13A C14G] gave a self-cleavage of 0.551.
For AACACUGCCAAUAUCGGUCCCAAGCCCGGAUAAAAGUGGAGGGGGCGG [G13A C14U], the self-cleavage was 0.8.
In the case of AACACUGCCAAUACCGGUCCAAAGCCCGGAUAAAAGUGGAGGGGGCGG [G13A C21A], the self-cleavage is reported as 0.0879.
Work on AACACUGCCAAUACCCGUCCCAAGCCCGGAUAAAAGUGGAGGGGGCGG [G13A G16C] yielded a self-cleavage of 0.106.
With AACACUGCCAAUACCAGUCCCAAGCCCGGAUAAAAGUGGAGGGGGCGG [G13A G16A] the self-cleavage was 0.352.
AACACUGCCAAGGCCGGUCCCAAGCCCGGAUAAAAGUGGAGCGGGCGG [U12G G42C] showed a self-cleavage of 0.369.
Variant AACACUGCCAAUACCGGUCCCAAGCCCGGAAAAAAGUGGAGGGGGCGG [G13A U31A] has a self-cleavage of 1.02.
In the case of AACACUGCCAAUACCGGUCCCAAGCCCGGAUGAAAGUGGAGGGGGCGG [G13A A32G], the self-cleavage is reported as 0.882.
In the case of AACACUGCCAAUACCGGUCCCAAGCCCGGAUUAAAGUGGAGGGGGCGG [G13A A32U], the self-cleavage is reported as 0.961.
Work on AACACUGCCAAUCCCGGUCCCAAGCCCGGAUAAAAGUGGAGGGGGUGG [G13C C46U] yielded a self-cleavage of 0.485.
Variant AACACUGCCAAUCCCGGUCCCAAGCCCGGAUAAAAGUGGAGGGGGGGG [G13C C46G] has a self-cleavage of 0.268.
AACACUGCCAAUCCCGGUCCCAAGCCCGGAUAAAAGUGGAGGGGGAGG [G13C C46A] showed a self-cleavage of 0.232.
Work on AACACUGCCAAGGCCGGUCCCAAGCCCGGAUAAAAGUGGAGGGGGCAG [U12G G47A] yielded a self-cleavage of 0.772.
Work on AACACUGCCAAGGCCGGUCCCAAGCCCGGAUAAAAGUGGAGGGGGCUG [U12G G47U] yielded a self-cleavage of 0.703.
AACACUGCCAAGGCCGGUCCCAAGCCCGGAUAAAAAUGGAGGGGGCGG [U12G G36A] gave a self-cleavage of 0.64.
Variant AACACUGCCAAGGCCGGUCCCAAGCCCGGAUAAAACUGGAGGGGGCGG [U12G G36C] has a self-cleavage of 0.475.
Work on AACACUGCCAAGGCCGGUCCCAAGCCCGGAUAAAAUUGGAGGGGGCGG [U12G G36U] yielded a self-cleavage of 0.397.
AACACUGCCAAUCCCGGUCCCAAGCCCGGCUAAAAGUGGAGGGGGCGG [G13C A30C] gave a self-cleavage of 0.518.
Variant AACACUGCCAAUCCCGGUCCCAAGCCCGGUUAAAAGUGGAGGGGGCGG [G13C A30U] has a self-cleavage of 0.612.
Variant AACACUGCCAAGGCCGGUCCCAAGCCCGGAUAAAAGUGGAGGAGGCGG [U12G G43A] has a self-cleavage of 0.399.
AACACUGCCAAUACCGGUCCCAAGACCGGAUAAAAGUGGAGGGGGCGG [G13A C25A] gave a self-cleavage of 0.0972.
In the case of AACACUGCCAAUACCGGUCCCAAGGCCGGAUAAAAGUGGAGGGGGCGG [G13A C25G], the self-cleavage is reported as 0.0804.
For AACACUGCCAAUACCGGUCCCAAGUCCGGAUAAAAGUGGAGGGGGCGG [G13A C25U], the self-cleavage was 0.387.
Work on AACACUGCCAAUACCGGGCCCAAGCCCGGAUAAAAGUGGAGGGGGCGG [G13A U18G] yielded a self-cleavage of 0.0757.
AACACUGCCAAUACCGGCCCCAAGCCCGGAUAAAAGUGGAGGGGGCGG [G13A U18C] gave a self-cleavage of 0.129.
Variant AACACUGCCAAUCCCGGUCCCAAGCCCGGAUAAACGUGGAGGGGGCGG [G13C A35C] has a self-cleavage of 0.403.
In the case of AACACUGCCAAUCCCGGUCCCAAGCCCGGAUAAAGGUGGAGGGGGCGG [G13C A35G], the self-cleavage is reported as 0.139.
With AACACUGCCAAUCCCGGUCCCAAGCCCGGAUAAAUGUGGAGGGGGCGG [G13C A35U] the self-cleavage was 0.629.
Work on AACACUGCCAAUACCGGUCCCAAGCCGGGAUAAAAGUGGAGGGGGCGG [G13A C27G] yielded a self-cleavage of 0.073.
Variant AACACUGCCAAUACCGGUCCCAAGCCCGGAUAAAAGUGAAGGGGGCGG [G13A G39A] has a self-cleavage of 0.202.
For AACACUGCCAAUACCGGUCCCAAGCCCGGAUAAAAGUGUAGGGGGCGG [G13A G39U], the self-cleavage was 0.171.
AACACUGCCAAUACCGGUCCCAAGCCCGGAUAAAAGUGGAGAGGGCGG [G13A G42A] gave a self-cleavage of 0.186.
AACACUGCCAAUCCCGGUCACAAGCCCGGAUAAAAGUGGAGGGGGCGG [G13C C20A] gave a self-cleavage of 0.0483.
Work on AACACUGCCAAUCCCGGUCUCAAGCCCGGAUAAAAGUGGAGGGGGCGG [G13C C20U] yielded a self-cleavage of 0.125.
Work on AACACUGCCAAUCCCGGUCGCAAGCCCGGAUAAAAGUGGAGGGGGCGG [G13C C20G] yielded a self-cleavage of 0.0962.
For AACACUGCCAAUACCGCUCCCAAGCCCGGAUAAAAGUGGAGGGGGCGG [G13A G17C], the self-cleavage was 0.0471.
AACACUGCCAAUACCGUUCCCAAGCCCGGAUAAAAGUGGAGGGGGCGG [G13A G17U] gave a self-cleavage of 0.108.
Work on AACACUGCCAAUACCGGUCCCAAGCCCGGAUAAAAGCGGAGGGGGCGG [G13A U37C] yielded a self-cleavage of 0.183.
Work on AACACUGCCAAUACCGGUCCCAAGCCCGGAUAAAAGAGGAGGGGGCGG [G13A U37A] yielded a self-cleavage of 0.209.
AACACUGCCAAUACCGGUCCCAAGCCCGGAUAAAAGGGGAGGGGGCGG [G13A U37G] gave a self-cleavage of 0.233.
AACACUGCCAAUACCGGUGCCAAGCCCGGAUAAAAGUGGAGGGGGCGG [G13A C19G] gave a self-cleavage of 0.123.
Variant AACACUGCCAAGGCCGGUCCCAAGCCCGGAUAAAAGAGGAGGGGGCGG [U12G U37A] has a self-cleavage of 0.576.
Work on AACACUGCCAAUACCGGUCCCAAGCCCGGUUAAAAGUGGAGGGGGCGG [G13A A30U] yielded a self-cleavage of 0.899.
With AACACUGCCAAUACCGGUCCCAAGCCCGGCUAAAAGUGGAGGGGGCGG [G13A A30C] the self-cleavage was 0.771.
In the case of AACACUGCCAAUCCCGGUCCCAAGCCCGGAUGAAAGUGGAGGGGGCGG [G13C A32G], the self-cleavage is reported as 0.255.
